Measured values as given in publication PMC4740795, “Mechanistic insights into the recognition of 5-methylcytosine oxidation derivatives by the SUVH5 SRA domain”.

How the values were obtained:
[1] = biological target: T1, SUVH5 SRA domain (Arabidopsis, UniProt O82175 362-528); test: ITC; N = 0.48; ITC: 40 mM Tris-HCl pH 7.5, 50 mM NaCl, 2 mM b-mercaptoethanol, 25 C; FP: 20 mM Tris-HCl pH 7.5, 50 mM NaCl, 1 mM DTT, 20 C; EMSA: 25 mM Tris-HCl pH 7.5, 5% glycerol, 60 mM NaCl, 10 mM MgCl2, 0.4 mg/mL BSA, 2 mM DTT; details: protein: recombinant; tags: His6-SUMO, cleaved with Ulp1; chain copies: 2; self-complementary, 2 copies of strand
T1 sequence: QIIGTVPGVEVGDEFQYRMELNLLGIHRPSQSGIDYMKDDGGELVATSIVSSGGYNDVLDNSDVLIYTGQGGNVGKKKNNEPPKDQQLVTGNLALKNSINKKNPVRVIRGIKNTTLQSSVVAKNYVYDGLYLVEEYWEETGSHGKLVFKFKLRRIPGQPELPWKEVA

[2] = biological target: T1, SUVH5 SRA domain; test: ITC; N fixed to 0.5; 3-fold higher concentrations; ITC: 40 mM Tris-HCl pH 7.5, 50 mM NaCl, 2 mM b-mercaptoethanol, 25 C; FP: 20 mM Tris-HCl pH 7.5, 50 mM NaCl, 1 mM DTT, 20 C; EMSA: 25 mM Tris-HCl pH 7.5, 5% glycerol, 60 mM NaCl, 10 mM MgCl2, 0.4 mg/mL BSA, 2 mM DTT; details: protein: recombinant; tags: His6-SUMO, cleaved with Ulp1; chain copies: 2; self-complementary, 2 copies of strand
[3] = biological target: T1, SUVH5 SRA domain; test: ITC; N fixed to 0.5; endothermic; 3-fold higher concentrations; ITC: 40 mM Tris-HCl pH 7.5, 50 mM NaCl, 2 mM b-mercaptoethanol, 25 C; FP: 20 mM Tris-HCl pH 7.5, 50 mM NaCl, 1 mM DTT, 20 C; EMSA: 25 mM Tris-HCl pH 7.5, 5% glycerol, 60 mM NaCl, 10 mM MgCl2, 0.4 mg/mL BSA, 2 mM DTT; details: protein: recombinant; tags: His6-SUMO, cleaved with Ulp1; chain copies: 2; self-complementary, 2 copies of strand
[4] = biological target: T1, SUVH5 SRA domain; test: X-ray crystal structure (2.6 A); 2:1 complex, dual 5hmC flip-out; ITC: 40 mM Tris-HCl pH 7.5, 50 mM NaCl, 2 mM b-mercaptoethanol, 25 C; FP: 20 mM Tris-HCl pH 7.5, 50 mM NaCl, 1 mM DTT, 20 C; EMSA: 25 mM Tris-HCl pH 7.5, 5% glycerol, 60 mM NaCl, 10 mM MgCl2, 0.4 mg/mL BSA, 2 mM DTT; details: protein: recombinant; tags: His6-SUMO, cleaved with Ulp1; chain copies: 2; self-complementary, 2 copies of strand; 3' T overhang
[5] = biological target: T2, UHRF1 SRA domain (mammalian? (species ), UniProt Q96T88-2 427-630); test: fluorescence polarization; 20 C; ITC: 40 mM Tris-HCl pH 7.5, 50 mM NaCl, 2 mM b-mercaptoethanol, 25 C; FP: 20 mM Tris-HCl pH 7.5, 50 mM NaCl, 1 mM DTT, 20 C; EMSA: 25 mM Tris-HCl pH 7.5, 5% glycerol, 60 mM NaCl, 10 mM MgCl2, 0.4 mg/mL BSA, 2 mM DTT; details: protein: recombinant; tags: His6-SUMO, cleaved with Ulp1; label: 5'-6FAM
T2 sequence: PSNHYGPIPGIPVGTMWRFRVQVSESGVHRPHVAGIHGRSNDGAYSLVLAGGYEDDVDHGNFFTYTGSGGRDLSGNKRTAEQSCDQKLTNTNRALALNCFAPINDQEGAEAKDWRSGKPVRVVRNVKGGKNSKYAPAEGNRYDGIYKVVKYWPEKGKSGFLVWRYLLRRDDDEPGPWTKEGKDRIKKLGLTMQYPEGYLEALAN

[6] = biological target: T1, SUVH5 SRA domain; test: ITC; ITC: 40 mM Tris-HCl pH 7.5, 50 mM NaCl, 2 mM b-mercaptoethanol, 25 C; FP: 20 mM Tris-HCl pH 7.5, 50 mM NaCl, 1 mM DTT, 20 C; EMSA: 25 mM Tris-HCl pH 7.5, 5% glycerol, 60 mM NaCl, 10 mM MgCl2, 0.4 mg/mL BSA, 2 mM DTT; details: protein: recombinant; tags: His6-SUMO, cleaved with Ulp1; chain copies: 2
[7] = biological target: T1, SUVH5 SRA domain; test: ITC; N = 0.52; ITC: 40 mM Tris-HCl pH 7.5, 50 mM NaCl, 2 mM b-mercaptoethanol, 25 C; FP: 20 mM Tris-HCl pH 7.5, 50 mM NaCl, 1 mM DTT, 20 C; EMSA: 25 mM Tris-HCl pH 7.5, 5% glycerol, 60 mM NaCl, 10 mM MgCl2, 0.4 mg/mL BSA, 2 mM DTT; details: protein: recombinant; tags: His6-SUMO, cleaved with Ulp1; chain copies: 2; self-complementary, 2 copies of strand

B1: fully-5mCG duplex (ITC) (dsDNA)
DNA 1: CAGCTCGAGCTG
DNA 2: CAGCTCGAGCTG
modifications: 5mC at central CG, both strands
Kd [1]: 1.2 ± 0.09 µM

B2: fully-5caCG duplex (ITC) (dsDNA)
DNA 1: CAGCTCGAGCTG
DNA 2: CAGCTCGAGCTG
modifications: 5caC at central CG, both strands
Kd [2]: ~150 µM

B3: fully-5fCG duplex (ITC) (dsDNA)
DNA 1: CAGCTCGAGCTG
DNA 2: CAGCTCGAGCTG
modifications: 5fC at central CG, both strands
Kd [3]: ~125 µM

B4: fully-5hmCG 10-mer with 3'-T overhang (crystal) (dsDNA)
DNA 1: ACTACGTAGTT
DNA 2: ACTACGTAGTT
modifications: 5hmC at position 5, both strands
binding result [4]: binds

B5: hemi-5mCG 12-mer (dsDNA)
DNA 1: CCATGCGCTGAC
DNA 2: GTCAGCGCATGG
modifications: X = 5mC, one strand
Kd [5]: 0.35 µM

B6: hemi-5hmCG duplex (ITC) (dsDNA)
DNA 1: CCATGCGCTGAC
DNA 2: GTCAGCGCATGG
modifications: 5hmC at central CG, one strand
Kd [6]: 7.6 ± 0.6 µM

B7: fully-5hmCG duplex (ITC) (dsDNA)
DNA 1: CAGCTCGAGCTG
DNA 2: CAGCTCGAGCTG
modifications: 5hmC at central CG, both strands
Kd [7]: 1.5 ± 0.12 µM
